Experimental data from patent US20180179500.
Residue numbers refer to the chain shown, from its start. In names and notes the source's numbering stands.

B1: T4 Dda-F98W/E94C/C109A/C136A/K194L/A360C (protein)
chain: GTFDDLTEGQKNAFNIVMKAIKEKKHHVTINGPAGTGKTTLTKFIIEALISTGETGIILAAPTHAAKKILSKLSGKEASTIHSILKINPVTYECNVLWEQKEVPDLAKARVLICDEVSMYDRKLFKILLSTIPPWATIIGIGDNKQIRPVDPGENTAYISPFFTHKDFYQCELTEVKRSNAPIIDVATDVRNGLWIYDKVVDGHGVRGFTGDTALRDFMVNYFSIVKSLDDLFENRVMAFTNKSVDKLNSIIRKKIFETDKDFIVGEIIVMQEPLFKTYKIDGKPVSEIIFNNGQLVRIIEAEYTSTFVKARGVPGEYLIRHWDLTVETYGDDEYYREKIKIISSDEELYKFNLFLGKTCETYKNWNKGGKAPWSDFWDAKSQFSKVKALPASTFHKAQGMSVDRAFIYTPCIHYADVELAQQLLYVGVTRGRYDVFYV
B2: T4 Dda-E94C/F98W/C109A/C136A/K199L/A360C (protein)
chain: B1 chain with L194K, K199L

Target: MspA-((Del-L74/G75/D118/L119)D56F/E59R/L88N/D90N/D91N/Q126R/D134R/E139K)8

Protein	% complement bases missed through slipping [%]	Average slip length	Number complement slips per 3.6 kb (slips per 3.6 kb)	Number complement slips per kb [slips per kb]	Total length of complement slips
B1	1.9	23.3	3	0.8	70
B2	3.6	21.5	6	1.7	129
